Target: human MASP-2 (Homo sapiens (Human), UniProt O00187)
Assay: C3 assay: inhibition of lectin pathway C3 convertase formation in human serum (scFv clones)
Format: biochemical
Settings: read-out: 1% human serum C3 assay (IC50 nM), scFv format
From the text: A functional assay that measures inhibition of lectin pathway C3 convertase formation was used to evaluate the “blocking activity” of the MASP-2 scFv candidate clones. MASP-2 serine protease activity is required in order to generate the two protein components (C4b, C2a) that comprise the lectin pathway C3 convertase. Therefore, a MASP-2 scFv that inhibits MASP-2 functional activity (i.e., a blocking MASP-2 scFv), will inhibit de novo formation of lectin pathway C3 convertase. […]
The scFv clones were each tested in triplicate at the concentration of 2 μg/mL. […] C3c formation was monitored in the presence and absence of the scFv/IgG clones. […]
Normal human serum was diluted to 0.5% in CaMgGVB buffer, and scFv clones or the OMS100 Fab2 positive control were added in triplicates at 0.01 μg/mL; 1 μg/mL (only OMS100 control) and 10 μg/mL to this buffer and preincubated 45 minutes on ice before addition to the blocked ELISA plate. […] C3b deposition was detected with a Rabbit α-Mouse C3c antibody followed by Goat α-Rabbit H1RP. […] The background was determined by carrying out the same assay except that the wells were mannan-free. […]

Chain of human MASP-2 (O00187 whole entry, looked up): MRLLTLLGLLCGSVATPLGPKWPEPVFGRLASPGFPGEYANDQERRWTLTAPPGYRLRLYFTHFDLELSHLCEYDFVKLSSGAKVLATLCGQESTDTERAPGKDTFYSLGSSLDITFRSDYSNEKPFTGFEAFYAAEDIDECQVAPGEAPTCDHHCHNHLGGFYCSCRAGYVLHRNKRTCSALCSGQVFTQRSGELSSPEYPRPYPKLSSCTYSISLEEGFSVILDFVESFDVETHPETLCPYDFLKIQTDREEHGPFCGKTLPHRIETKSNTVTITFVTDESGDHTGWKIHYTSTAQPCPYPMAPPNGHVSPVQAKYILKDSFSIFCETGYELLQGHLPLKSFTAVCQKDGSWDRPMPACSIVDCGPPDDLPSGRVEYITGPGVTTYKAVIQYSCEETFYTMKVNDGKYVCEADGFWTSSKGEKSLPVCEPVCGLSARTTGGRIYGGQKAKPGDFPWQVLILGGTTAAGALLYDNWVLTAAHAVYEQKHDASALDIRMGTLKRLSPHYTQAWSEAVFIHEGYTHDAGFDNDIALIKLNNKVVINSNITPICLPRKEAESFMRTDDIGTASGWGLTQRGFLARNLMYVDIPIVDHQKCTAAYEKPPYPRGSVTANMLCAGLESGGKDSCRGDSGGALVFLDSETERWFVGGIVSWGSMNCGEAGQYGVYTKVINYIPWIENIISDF

| Molecule | IC50 |
| --- | --- |
| 17D20mc: mother scFv clone, fully human MASP-2 antibody from phage display (TABLE 8, "all in scFv format") (protein) scFv: QVTLKESGPVLVKPTETLTLTCTVSGFSLSRGKMGVSWIRQPPGKALEWLAHIFSSDEKSYRTSLKSRLTISKDTSKNQVVLTMTNMDPVDTATYYCARIRAGGIDYWGQGTLVTVSSKLSGSASAPKLEEGEFSEARVQPVLTQPPSVSVSPGQTASITCSGDKLGDKFAYWYQQKPGHSPVLVIYQDNKRPSGIPGRFSGSNSGNTATLTISGTQAMDEADYYCQAWDSSTAVFGTGTKVTVLAAAGSEQKLISEEDLNSHHHHHH | 38 nM |
| 17N16mc: mother scFv clone, fully human MASP-2 antibody from phage display (TABLE 8, "all in scFv format") (protein) scFv: QVQLQQSGPGLVKPSQTLSLTCAISGDSVSSTSAAWNWIRQSPSRGLEWLGRTYYRSKWYNDYAVSVKSRITINPDTSKNQFSLQLNSVTPEDTAVYYCARDPFGVPFDIWGQGTMVTVSSKLSGSASAPKLEEGEFSEARVSYVLTQPPSVSVAPGQTARITCGGNNIGSKNVHWYQQKPGQAPVLVVYDDSDRPSGIPERFSGSNSGNTATLTVSRVEAGDEADYYCQVWDTTTDHVVFGGGTKLTVLAAAGSEQKLISEEDLNSHHHHHH | 68 nM |
